Test results published in PMC12389326, “The Impact of the Injected Mass of the Gastrin-Releasing Peptide Receptor Antagonist on Uptake in Breast Cancer: Lessons from a Phase I Trial of [^99mTc]Tc-DB8” (Pharmaceutics, 2025).

Key:
[1] = parameters: species or system human; conditions: in vivo
Experimental: (§1) Dosimetry was evaluated as described in [44]. Briefly, regions of interest (ROI) were drawn over organs of interest and over the whole body on the anterior and posterior whole-body images of patients injected with [^99mTc]Tc-DB8; a geometric mean of counts at 2, 4, 6, and 24 h was calculated for each ROI. To assess elimination kinetics in blood, a ROI was placed over the heart. For quantification, a known activity of Tc-99m in a water-filled phantom in combination with Chang’s correction was used. Data were fitted by single exponential functions and residence time was calculated as areas under fitted curves using GraphPad Prism 8.0 (GraphPad Software, San Diego, CA, USA). Absorbed doses were calculated by OLINDA/EXM 1.1 using Adult Female phantom.

[2] = clinical; parameters: species or system human; conditions: in vivo; for tissue uptake dose at 4 h / tissue uptake dose at 6 h / tissue uptake dose at 24 h / tissue uptake dose at 2 h: human, SD
Experimental: Imaging was performed using a Siemens Symbia Intevo Bold scanner equipped with a high-resolution, low-energy collimator. Anterior and posterior planar whole-body imaging (at a scan speed of 12 cm/min, 1024 × 256 pixel matrix) was performed at 2, 4, 6, and 24 h after injection of [^99mTc]Tc-DB8. SPECT/CT scans (SPECT: 60 projections, 20 s each, stored in 256 × 256 pixel matrix/CT: 130 kV, effective 36 mAs) covering the area from the neck to liver were performed 2, 4, and 6 h after injection of [^99mTc]Tc-DB8. SPECT images were reconstructed using xSPECT (Siemens) protocol based on the ordered subset conjugate gradient (OSCG) method (24 iterations, 2 subsets) with a 3D Gaussian FWHM 10 mm filter (Soft Tissue). The images were processed using the proprietary software package Syngo.via Workstation (Siemens Healthineers).
as §1

[3] = cited from earlier work
Experimental: The injected activities were selected to enable good counting statistics, permitting accurate dosimetry calculations up to 24 h after injection. […] Considering that the clear SPECT visualization was already observed 2 h after injection, the injected activ ...

[4] = 40 ug, Uptake in Liver (decay-corrected)
[5] = 40 ug, Uptake in Lungs (decay-corrected)
[6] = 40 ug, Uptake in Pancreas (decay-corrected)
[7] = 40 ug, total radioactivity, Uptake in Breast (decay-corrected)
[8] = 40 ug, total radioactivity, Uptake in Kidney (decay-corrected)
[9] = 40 ug, total radioactivity, Uptake in Small Intestine (decay-corrected)
[10] = 80 ug, Uptake in Liver (decay-corrected)
[11] = 80 ug, Uptake in Lungs (decay-corrected)
[12] = 80 ug, Uptake in Pancreas (decay-corrected)
[13] = 80 ug, total radioactivity, Uptake in Breast (decay-corrected)
[14] = 80 ug, total radioactivity, Uptake in Kidney (decay-corrected)
[15] = 80 ug, total radioactivity, Uptake in Small Intestine (decay-corrected)
[16] = 120 ug, Uptake in Liver (decay-corrected)
[17] = 120 ug, Uptake in Lungs (decay-corrected)
[18] = 120 ug, Uptake in Pancreas (decay-corrected)
[19] = 120 ug, total radioactivity, Uptake in Breast (decay-corrected)
[20] = 120 ug, total radioactivity, Uptake in Kidney (decay-corrected)
[21] = 120 ug, total radioactivity, Uptake in Small Intestine (decay-corrected)

What does the source list for `CCNC(=O)[C@H](CC(C)C)NC(=O)[C@H](Cc1c[nH]cn1)NC(=O)CNC(=O)[C@@H](NC(=O)[C@H](C)NC(=O)[C@H](Cc1c[nH]c2ccccc12)NC(=O)[C@H](CCC(N)=O)NC(=O)[C@@H](Cc1ccccc1)NC(=O)COCC(=O)Nc1ccc(CNC(=O)C(CNCCN)CNCCN)cc1)C(C)C` [[^99mTc]Tc-DB8, metal not drawn]?
Absorbed dose, Urinary bladder wall [1]: 0.02 ± 0.01 mGy/MBq; Absorbed equivalent dose [1]: 4.6 mSv; Effective dose [1]: 0.009–0.014 mSv/MBq; tissue uptake dose at 4 h [2, 4]: 2.1 ± 1.1 %ID; tissue uptake dose at 6 h [2, 4]: 1.6 ± 0.8 %ID; tissue uptake dose at 24 h [2, 4]: 0.8 ± 0.4 %ID; tissue uptake dose at 2 h [2, 5]: 3.8 ± 0.5 %ID; tissue uptake dose at 4 h [2, 5]: 2.3 ± 0.3 %ID; tissue uptake dose at 6 h [2, 5]: 1.6 ± 0.2 %ID; tissue uptake dose at 24 h [2, 5]: 0.7 ± 0.1 %ID; tissue uptake dose at 2 h [2, 6]: 1.5 ± 0.5 %ID; tissue uptake dose at 4 h [2, 6]: 0.9 ± 0.4 %ID; tissue uptake dose at 6 h [2, 6]: 0.7 ± 0.3 %ID; tissue uptake dose at 24 h [2, 6]: 0.35 ± 0.09 %ID; tissue uptake dose at 2 h [2, 7]: 4.2 ± 1.1 %ID; tissue uptake dose at 4 h [2, 7]: 2.4 ± 0.4 %ID; tissue uptake dose at 6 h [2, 7]: 1.7 ± 0.3 %ID; tissue uptake dose at 24 h [2, 7]: 0.7 ± 0.1 %ID; tissue uptake dose at 2 h [2, 8]: 3.1 ± 1.9 %ID; tissue uptake dose at 4 h [2, 8]: 2.1 ± 0.9 %ID; tissue uptake dose at 6 h [2, 8]: 1.6 ± 0.5 %ID; tissue uptake dose at 24 h [2, 8]: 0.9 ± 0.2 %ID; tissue uptake dose at 2 h ([2]; 40 ug, total radioactivity, Uptake in Liver (decay-corrected)): 3 ± 1.6 %ID; tissue uptake dose at 2 h [2, 9]: 4.2 ± 1.6 %ID; tissue uptake dose at 4 h [2, 9]: 2.8 ± 1.1 %ID; tissue uptake dose at 6 h [2, 9]: 2.1 ± 0.7 %ID; tissue uptake dose at 24 h [2, 9]: 1.4 ± 0.3 %ID; tissue uptake dose at 2 h [2, 10]: 3.3 ± 0.9 %ID; tissue uptake dose at 4 h [2, 10]: 2.2 ± 0.8 %ID; tissue uptake dose at 6 h [2, 10]: 1.4 ± 0.7 %ID; tissue uptake dose at 24 h [2, 10]: 0.7 ± 0.3 %ID; tissue uptake dose at 2 h [2, 11]: 5.9 ± 1.6 %ID; tissue uptake dose at 4 h [2, 11]: 4.1 ± 1.6 %ID; tissue uptake dose at 6 h [2, 11]: 2.8 ± 1.2 %ID; tissue uptake dose at 24 h [2, 11]: 0.9 ± 0.4 %ID; tissue uptake dose at 2 h [2, 12]: 1.2 ± 0.3 %ID; tissue uptake dose at 4 h [2, 12]: 0.8 ± 0.3 %ID; tissue uptake dose at 6 h [2, 12]: 0.6 ± 0.3 %ID; tissue uptake dose at 24 h [2, 12]: 0.2 ± 0.1 %ID; tissue uptake dose at 2 h [2, 13]: 6.2 ± 1.9 %ID; tissue uptake dose at 4 h [2, 13]: 3.4 ± 1.7 %ID; tissue uptake dose at 6 h [2, 13]: 2.7 ± 1.2 %ID; tissue uptake dose at 24 h [2, 13]: 0.8 ± 0.4 %ID; tissue uptake dose at 2 h [2, 14]: 5.1 ± 2.1 %ID; tissue uptake dose at 4 h [2, 14]: 2.8 ± 0.9 %ID; tissue uptake dose at 6 h [2, 14]: 2.2 ± 0.9 %ID; tissue uptake dose at 24 h [2, 14]: 1.2 ± 0.8 %ID; tissue uptake dose at 2 h [2, 15]: 3.4 ± 1.1 %ID; tissue uptake dose at 4 h [2, 15]: 2.2 ± 0.6 %ID; tissue uptake dose at 6 h [2, 15]: 1.6 ± 0.6 %ID; tissue uptake dose at 24 h [2, 15]: 0.7 ± 0.4 %ID; tissue uptake dose at 2 h [2, 16]: 2.2 ± 0.9 %ID; tissue uptake dose at 4 h [2, 16]: 1.5 ± 0.7 %ID; tissue uptake dose at 6 h [2, 16]: 1.1 ± 0.5 %ID; tissue uptake dose at 24 h [2, 16]: 0.5 ± 0.2 %ID; tissue uptake dose at 2 h [2, 17]: 3.5 ± 1.3 %ID; tissue uptake dose at 4 h [2, 17]: 2 ± 1 %ID; tissue uptake dose at 6 h [2, 17]: 1.6 ± 0.7 %ID; tissue uptake dose at 24 h [2, 17]: 0.6 ± 0.2 %ID; tissue uptake dose at 2 h [2, 18]: 0.8 ± 0.2 %ID; tissue uptake dose at 4 h [2, 18]: 0.5 ± 0.1 %ID; tissue uptake dose at 6 h [2, 18]: 0.34 ± 0.09 %ID; tissue uptake dose at 24 h [2, 18]: 0.15 ± 0.06 %ID; tissue uptake dose at 2 h [2, 19]: 3.5 ± 1.1 %ID; tissue uptake dose at 4 h [2, 19]: 2 ± 0.8 %ID; tissue uptake dose at 6 h [2, 19]: 1.3 ± 0.5 %ID; tissue uptake dose at 24 h [2, 19]: 0.6 ± 0.2 %ID; tissue uptake dose at 2 h [2, 20]: 3.5 ± 1.6 %ID; tissue uptake dose at 4 h [2, 20]: 2.2 ± 1 %ID; tissue uptake dose at 6 h [2, 20]: 1.7 ± 0.8 %ID; tissue uptake dose at 24 h [2, 20]: 1.1 ± 0.4 %ID; tissue uptake dose at 2 h [2, 21]: 3.3 ± 1 %ID; tissue uptake dose at 4 h [2, 21]: 2.1 ± 0.7 %ID; tissue uptake dose at 6 h [2, 21]: 1.8 ± 0.6 %ID; tissue uptake dose at 24 h [2, 21]: 1.1 ± 0.4 %ID; Route of elimination [2]: predominantly via the kidneys

With [^18F]FDG as the compound, how does the “Absorbed dose after injection for visualization of breast cancer” value [3] read?
The value was 2.5–4.3 mSv.
